Data as given in the supplement of paper PMC10065799, “High-throughput profiling of sequence recognition by tyrosine kinases and SH2 domains using bacterial peptide display” (eLife, 2023).

Each sequence was assayed against Fes (UniProt P07332) (assay: phosphorylation enrichment, bacterial display (enrichment ratio); higher = better substrate or ligand; peptides without Tyr show the background).
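Throughout, for SH2 binding enrichment of the phosphorylated peptide, bacterial display: peptide library displayed on the E. coli surface as eCPX fusions, selected cells deep-sequenced, score is each peptide's frequency after selection divided by its frequency in the input.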
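Throughout, for phosphorylation enrichment, bacterial display: 11-residue human phosphosite peptides and single-mutation variants displayed on the E. coli surface, counted by deep sequencing, each peptide's frequency after selection divided by its frequency in the unselected input library; frequency after pTyr selection over input frequency; kinase dosed for 20-30% of maximal phosphorylation in three min.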

Fes, sequence (P07332 whole entry, looked up, the tested form may be a part): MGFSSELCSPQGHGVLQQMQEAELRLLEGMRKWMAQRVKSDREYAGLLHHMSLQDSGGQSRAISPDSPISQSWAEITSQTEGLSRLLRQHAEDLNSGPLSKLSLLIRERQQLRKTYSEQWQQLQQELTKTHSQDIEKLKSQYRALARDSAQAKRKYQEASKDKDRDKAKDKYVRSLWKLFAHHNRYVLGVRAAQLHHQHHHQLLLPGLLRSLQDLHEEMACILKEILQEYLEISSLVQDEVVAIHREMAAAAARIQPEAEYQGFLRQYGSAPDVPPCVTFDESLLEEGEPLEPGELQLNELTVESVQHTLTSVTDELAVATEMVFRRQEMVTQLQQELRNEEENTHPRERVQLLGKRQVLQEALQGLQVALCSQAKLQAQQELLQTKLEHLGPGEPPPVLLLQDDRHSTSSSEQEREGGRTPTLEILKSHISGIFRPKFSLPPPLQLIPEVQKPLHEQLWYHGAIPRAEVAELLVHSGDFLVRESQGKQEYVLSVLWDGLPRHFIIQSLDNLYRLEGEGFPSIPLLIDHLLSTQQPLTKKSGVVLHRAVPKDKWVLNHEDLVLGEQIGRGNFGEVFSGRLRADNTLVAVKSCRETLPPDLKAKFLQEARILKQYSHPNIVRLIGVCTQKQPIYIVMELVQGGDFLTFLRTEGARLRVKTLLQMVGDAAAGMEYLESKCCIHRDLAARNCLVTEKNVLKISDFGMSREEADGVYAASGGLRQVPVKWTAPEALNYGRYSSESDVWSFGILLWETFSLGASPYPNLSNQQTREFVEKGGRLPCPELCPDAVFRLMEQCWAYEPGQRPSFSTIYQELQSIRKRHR

| Sequence | phosphorylation enrichment |
| --- | --- |
| MEIHAYRKLLE [LMNA_Y376] | 0.97 |
| IVRSPYEDLED [VHL_Y185_L184P] | 1.16 |
| EVRAQYEEIAQ [KRT76_Y361] | 1.22 |
| CTTIHYNFMCF [TP53_Y234_N239Y_YF] | 1.12 |
| RHPFFYAPELL [ALB_Y174_YF] | 1.99 |
| LIFTNYEAGKD [GSTP1_Y112_YF] | 1.39 |
| QTEAQYRFIFM [PTPN11_Y511_YF] | 1.92 |
| SLALFYRKVYH [RBL1_Y792] | 1.23 |
| TSEASYFKSLN [NGEF_Y288_YF] | 0.717 |
| SVTCTYPPALN [TP53_Y126_S127P] | 0.873 |
| ILNANYMAKRL [GLDC_Y839] | 0.514 |
| VVKLTYNENDN [CAMKK2_Y183_A182T] | 0.917 |
| LIFVSYDDWDY [GRIN2A_Y281_S278F] | 2.75 |
| KQELVYTNKKL [OPTN_Y356] | 0.675 |
| VTPSEYLEIVR [TMEM130_Y412_E407V] | 0.859 |
| ISDNACQYMLT [MYH7_Y162_Y162C] | 1.05 |
| ETVHRYVELLD [AP1S3_Y87_I83T] | 0.997 |

| Sequence | phosphorylation enrichment |
| --- | --- |
| RLLRGYDQLAY [HLA-C_Y137_S140L] | 1.02 |
| ARVDTYCRHNY [HLA-DRB1_Y107_A103R] | 1.09 |
| HHIDFYKKTTN [FGFR1_Y654_YF] | 1.19 |
| HILFRYPKEFQ [IDS_Y234_P231L] | 1.19 |
| KLSCSYSHLSA [C4BPA_Y470_W473L] | 1.21 |
| HAVYVCDICHV [TWNK_Y508_Y508C] | 1.42 |
| ISIFRYAKGQP [MPZ_Y82_H81R] | 0.937 |
| RHPYFFAPELL [ALB_Y174_Y174F] | 1.33 |
| GCRSKSVGLWG [KCNQ1_Y184_Y184S] | 0.62 |
| EDKFMYLEFPQ [PTEN_Y240_F241L] | 1.34 |
| PLQKTYNYNML [SLC4A1_Y553_V557M] | 1.01 |
| LEEFQYIGELQ [MSH2_Y856_S860L] | 2.04 |
| HVKHNYECLVF [XRCC5_Y416_I412V_YF] | 1.17 |
| RFQKLYLDRNL [IGFALS_Y248_L244F] | 0.761 |
| MDDPRYGVCPL [ZNF100_Y6_M8V] | 1.27 |
| ETAENYLGYTA [HSPA9_Y181_H184Y] | 1.23 |

What follows are sequences tested against SHP2-C SH2 (assay: SH2 binding enrichment of the phosphorylated peptide, bacterial display (enrichment ratio); higher = better substrate or ligand; peptides without Tyr show the background).

| Sequence | SH2 binding enrichment |
| --- | --- |
| MEIHAYRKLLE [LMNA_Y376] | 0.572 |
| IVRSPYEDLED [VHL_Y185_L184P] | 0.766 |
| EVRAQYEEIAQ [KRT76_Y361] | 0.623 |
| CTTIHYNFMCF [TP53_Y234_N239Y_YF] | 2.01 |
| RHPFFYAPELL [ALB_Y174_YF] | 1.14 |
| LIFTNYEAGKD [GSTP1_Y112_YF] | 0.55 |
| QTEAQYRFIFM [PTPN11_Y511_YF] | 0.777 |
| SLALFYRKVYH [RBL1_Y792] | 0.795 |
| TSEASYFKSLN [NGEF_Y288_YF] | 0.589 |
| SVTCTYPPALN [TP53_Y126_S127P] | 0.617 |
| ILNANYMAKRL [GLDC_Y839] | 0.509 |
| VVKLTYNENDN [CAMKK2_Y183_A182T] | 0.673 |
| LIFVSYDDWDY [GRIN2A_Y281_S278F] | 1.38 |
| KQELVYTNKKL [OPTN_Y356] | 0.803 |
| VTPSEYLEIVR [TMEM130_Y412_E407V] | 0.825 |
| ISDNACQYMLT [MYH7_Y162_Y162C] | 0.748 |
| ETVHRYVELLD [AP1S3_Y87_I83T] | 1.94 |

| Sequence | SH2 binding enrichment |
| --- | --- |
| RLLRGYDQLAY [HLA-C_Y137_S140L] | 0.727 |
| ARVDTYCRHNY [HLA-DRB1_Y107_A103R] | 0.755 |
| HHIDFYKKTTN [FGFR1_Y654_YF] | 0.61 |
| HILFRYPKEFQ [IDS_Y234_P231L] | 0.791 |
| KLSCSYSHLSA [C4BPA_Y470_W473L] | 0.734 |
| HAVYVCDICHV [TWNK_Y508_Y508C] | 1.26 |
| ISIFRYAKGQP [MPZ_Y82_H81R] | 0.534 |
| RHPYFFAPELL [ALB_Y174_Y174F] | 1.01 |
| GCRSKSVGLWG [KCNQ1_Y184_Y184S] | 0.899 |
| EDKFMYLEFPQ [PTEN_Y240_F241L] | 0.616 |
| PLQKTYNYNML [SLC4A1_Y553_V557M] | 0.623 |
| LEEFQYIGELQ [MSH2_Y856_S860L] | 0.986 |
| HVKHNYECLVF [XRCC5_Y416_I412V_YF] | 0.632 |
| RFQKLYLDRNL [IGFALS_Y248_L244F] | 0.771 |
| MDDPRYGVCPL [ZNF100_Y6_M8V] | 0.616 |
| ETAENYLGYTA [HSPA9_Y181_H184Y] | 0.7 |

Each sequence was assayed against Grb2 SH2 (UniProt P62993) in the same assay as above.
Grb2 SH2, sequence (P62993 whole entry, looked up): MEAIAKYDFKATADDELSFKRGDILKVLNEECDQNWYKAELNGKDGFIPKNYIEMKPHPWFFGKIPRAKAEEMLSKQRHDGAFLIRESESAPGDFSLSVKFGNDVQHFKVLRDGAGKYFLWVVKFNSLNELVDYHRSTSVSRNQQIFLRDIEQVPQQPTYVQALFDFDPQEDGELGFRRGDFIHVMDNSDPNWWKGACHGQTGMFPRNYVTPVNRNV

| Sequence | SH2 binding enrichment |
| --- | --- |
| MEIHAYRKLLE [LMNA_Y376] | 0.869 |
| IVRSPYEDLED [VHL_Y185_L184P] | 0.962 |
| EVRAQYEEIAQ [KRT76_Y361] | 0.666 |
| CTTIHYNFMCF [TP53_Y234_N239Y_YF] | 1.95 |
| RHPFFYAPELL [ALB_Y174_YF] | 1.34 |
| LIFTNYEAGKD [GSTP1_Y112_YF] | 0.848 |
| QTEAQYRFIFM [PTPN11_Y511_YF] | 0.627 |
| SLALFYRKVYH [RBL1_Y792] | 0.689 |
| TSEASYFKSLN [NGEF_Y288_YF] | 0.56 |
| SVTCTYPPALN [TP53_Y126_S127P] | 0.865 |
| ILNANYMAKRL [GLDC_Y839] | 1.08 |
| VVKLTYNENDN [CAMKK2_Y183_A182T] | 0.815 |
| LIFVSYDDWDY [GRIN2A_Y281_S278F] | 1.38 |
| KQELVYTNKKL [OPTN_Y356] | 0.781 |
| VTPSEYLEIVR [TMEM130_Y412_E407V] | 0.763 |
| ISDNACQYMLT [MYH7_Y162_Y162C] | 0.752 |
| ETVHRYVELLD [AP1S3_Y87_I83T] | 0.929 |

| Sequence | SH2 binding enrichment |
| --- | --- |
| RLLRGYDQLAY [HLA-C_Y137_S140L] | 1.1 |
| ARVDTYCRHNY [HLA-DRB1_Y107_A103R] | 1.09 |
| HHIDFYKKTTN [FGFR1_Y654_YF] | 1.05 |
| HILFRYPKEFQ [IDS_Y234_P231L] | 0.625 |
| KLSCSYSHLSA [C4BPA_Y470_W473L] | 0.897 |
| HAVYVCDICHV [TWNK_Y508_Y508C] | 1.18 |
| ISIFRYAKGQP [MPZ_Y82_H81R] | 0.843 |
| RHPYFFAPELL [ALB_Y174_Y174F] | 1.22 |
| GCRSKSVGLWG [KCNQ1_Y184_Y184S] | 0.875 |
| EDKFMYLEFPQ [PTEN_Y240_F241L] | 0.797 |
| PLQKTYNYNML [SLC4A1_Y553_V557M] | 0.78 |
| LEEFQYIGELQ [MSH2_Y856_S860L] | 1.16 |
| HVKHNYECLVF [XRCC5_Y416_I412V_YF] | 1.13 |
| RFQKLYLDRNL [IGFALS_Y248_L244F] | 0.793 |
| MDDPRYGVCPL [ZNF100_Y6_M8V] | 0.767 |
| ETAENYLGYTA [HSPA9_Y181_H184Y] | 0.882 |

The sequences below were run against c-Src SH2 in the same assay as above.

| Sequence | SH2 binding enrichment |
| --- | --- |
| MEIHAYRKLLE [LMNA_Y376] | 0.471 |
| IVRSPYEDLED [VHL_Y185_L184P] | 5.64 |
| EVRAQYEEIAQ [KRT76_Y361] | 22.5 |
| CTTIHYNFMCF [TP53_Y234_N239Y_YF] | 1.58 |
| RHPFFYAPELL [ALB_Y174_YF] | 0.988 |
| LIFTNYEAGKD [GSTP1_Y112_YF] | 0.499 |
| QTEAQYRFIFM [PTPN11_Y511_YF] | 0.355 |
| SLALFYRKVYH [RBL1_Y792] | 0.522 |
| TSEASYFKSLN [NGEF_Y288_YF] | 0.4 |
| SVTCTYPPALN [TP53_Y126_S127P] | 0.448 |
| ILNANYMAKRL [GLDC_Y839] | 0.461 |
| VVKLTYNENDN [CAMKK2_Y183_A182T] | 0.469 |
| LIFVSYDDWDY [GRIN2A_Y281_S278F] | 1.16 |
| KQELVYTNKKL [OPTN_Y356] | 0.4 |
| VTPSEYLEIVR [TMEM130_Y412_E407V] | 0.521 |
| ISDNACQYMLT [MYH7_Y162_Y162C] | 0.511 |
| ETVHRYVELLD [AP1S3_Y87_I83T] | 24.5 |

| Sequence | SH2 binding enrichment |
| --- | --- |
| RLLRGYDQLAY [HLA-C_Y137_S140L] | 5.06 |
| ARVDTYCRHNY [HLA-DRB1_Y107_A103R] | 0.752 |
| HHIDFYKKTTN [FGFR1_Y654_YF] | 0.325 |
| HILFRYPKEFQ [IDS_Y234_P231L] | 0.572 |
| KLSCSYSHLSA [C4BPA_Y470_W473L] | 0.631 |
| HAVYVCDICHV [TWNK_Y508_Y508C] | 1.28 |
| ISIFRYAKGQP [MPZ_Y82_H81R] | 0.596 |
| RHPYFFAPELL [ALB_Y174_Y174F] | 0.954 |
| GCRSKSVGLWG [KCNQ1_Y184_Y184S] | 0.531 |
| EDKFMYLEFPQ [PTEN_Y240_F241L] | 0.435 |
| PLQKTYNYNML [SLC4A1_Y553_V557M] | 1.37 |
| LEEFQYIGELQ [MSH2_Y856_S860L] | 0.591 |
| HVKHNYECLVF [XRCC5_Y416_I412V_YF] | 3.99 |
| RFQKLYLDRNL [IGFALS_Y248_L244F] | 0.463 |
| MDDPRYGVCPL [ZNF100_Y6_M8V] | 0.613 |
| ETAENYLGYTA [HSPA9_Y181_H184Y] | 0.557 |
